# Test results taken from patent publication US20200317817A1 (XOMA US, published 2020).
# T1: mouse PTH1R overexpressed on CHO cells (mouse, UniProt P41593 27-591)
# T1 sequence (looked up): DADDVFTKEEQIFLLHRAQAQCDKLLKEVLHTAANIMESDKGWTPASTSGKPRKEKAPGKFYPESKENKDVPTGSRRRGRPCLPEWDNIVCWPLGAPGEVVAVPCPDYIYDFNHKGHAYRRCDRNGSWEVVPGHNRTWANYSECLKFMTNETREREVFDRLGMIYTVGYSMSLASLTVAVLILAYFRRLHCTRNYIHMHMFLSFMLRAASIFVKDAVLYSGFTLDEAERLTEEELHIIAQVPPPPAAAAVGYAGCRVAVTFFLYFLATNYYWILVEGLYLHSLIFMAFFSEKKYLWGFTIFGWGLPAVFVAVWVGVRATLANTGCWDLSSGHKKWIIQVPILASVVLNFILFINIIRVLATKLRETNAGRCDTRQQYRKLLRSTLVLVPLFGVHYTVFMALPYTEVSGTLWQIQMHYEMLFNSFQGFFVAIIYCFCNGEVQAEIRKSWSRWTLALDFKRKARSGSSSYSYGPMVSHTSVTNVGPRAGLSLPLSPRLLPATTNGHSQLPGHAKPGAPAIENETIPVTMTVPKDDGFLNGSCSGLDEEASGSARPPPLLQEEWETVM
# T2: rat PTH1R on UMR106 cells (rat, UniProt P25961 27-591)
# T2 sequence (looked up): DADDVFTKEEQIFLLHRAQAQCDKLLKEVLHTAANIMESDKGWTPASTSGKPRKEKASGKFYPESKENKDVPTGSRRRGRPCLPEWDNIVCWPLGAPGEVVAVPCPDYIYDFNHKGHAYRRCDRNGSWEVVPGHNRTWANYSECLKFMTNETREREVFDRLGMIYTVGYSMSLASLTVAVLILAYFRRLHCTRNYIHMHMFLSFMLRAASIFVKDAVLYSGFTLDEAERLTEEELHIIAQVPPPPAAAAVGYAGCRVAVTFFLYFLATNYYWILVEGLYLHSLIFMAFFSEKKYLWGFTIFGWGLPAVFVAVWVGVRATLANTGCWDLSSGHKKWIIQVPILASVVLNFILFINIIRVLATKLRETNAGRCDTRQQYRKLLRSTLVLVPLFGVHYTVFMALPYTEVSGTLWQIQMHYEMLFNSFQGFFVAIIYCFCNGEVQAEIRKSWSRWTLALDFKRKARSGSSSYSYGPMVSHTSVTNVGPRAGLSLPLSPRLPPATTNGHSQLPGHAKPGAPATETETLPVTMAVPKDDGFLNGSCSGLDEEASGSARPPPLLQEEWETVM
# T3: human PTH1R on Saos-2 cells (endogenous) (human, UniProt Q03431 27-593)
# T3 sequence (looked up): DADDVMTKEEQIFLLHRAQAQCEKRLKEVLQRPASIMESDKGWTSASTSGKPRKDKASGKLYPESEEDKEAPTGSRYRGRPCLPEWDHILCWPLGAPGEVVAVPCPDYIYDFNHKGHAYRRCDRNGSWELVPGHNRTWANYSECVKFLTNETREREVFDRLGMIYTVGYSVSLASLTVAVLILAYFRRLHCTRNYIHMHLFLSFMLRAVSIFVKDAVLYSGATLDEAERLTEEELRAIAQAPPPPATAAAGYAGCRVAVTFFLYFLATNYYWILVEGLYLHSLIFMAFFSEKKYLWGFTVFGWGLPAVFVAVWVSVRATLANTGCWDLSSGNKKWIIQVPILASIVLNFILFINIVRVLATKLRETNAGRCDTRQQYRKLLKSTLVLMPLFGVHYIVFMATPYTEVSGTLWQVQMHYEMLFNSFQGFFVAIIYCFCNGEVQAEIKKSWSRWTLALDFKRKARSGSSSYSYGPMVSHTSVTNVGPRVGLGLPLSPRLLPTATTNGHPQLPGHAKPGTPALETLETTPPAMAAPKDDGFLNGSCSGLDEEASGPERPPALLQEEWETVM
# T4: human PTH1R overexpressed on CHO cells (human, UniProt Q03431 27-593)
# T4 construct: whole, on cells; also called CHO human PTH1R; CHO Human PTHR
# T4 sequence (looked up): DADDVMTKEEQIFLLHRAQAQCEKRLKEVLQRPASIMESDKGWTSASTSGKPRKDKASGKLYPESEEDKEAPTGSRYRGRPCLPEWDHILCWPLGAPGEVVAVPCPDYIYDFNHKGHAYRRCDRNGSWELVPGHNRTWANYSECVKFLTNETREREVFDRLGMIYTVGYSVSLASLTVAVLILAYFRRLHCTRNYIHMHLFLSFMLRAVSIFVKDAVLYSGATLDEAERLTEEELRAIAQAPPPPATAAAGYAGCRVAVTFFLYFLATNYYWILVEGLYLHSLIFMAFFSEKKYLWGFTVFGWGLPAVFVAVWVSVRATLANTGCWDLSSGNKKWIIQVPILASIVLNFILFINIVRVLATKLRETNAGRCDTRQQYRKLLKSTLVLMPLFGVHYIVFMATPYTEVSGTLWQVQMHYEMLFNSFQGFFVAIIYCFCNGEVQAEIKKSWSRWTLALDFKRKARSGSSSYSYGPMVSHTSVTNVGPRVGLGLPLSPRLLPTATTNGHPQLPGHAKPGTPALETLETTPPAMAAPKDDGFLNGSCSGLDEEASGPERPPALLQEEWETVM
# T5: human PTH1R overexpressed on Saos-2 cells (human, UniProt Q03431 27-593)
# T5 construct: whole, on cells; also called Saos-2 human PTH1R cells
# T5 sequence (looked up): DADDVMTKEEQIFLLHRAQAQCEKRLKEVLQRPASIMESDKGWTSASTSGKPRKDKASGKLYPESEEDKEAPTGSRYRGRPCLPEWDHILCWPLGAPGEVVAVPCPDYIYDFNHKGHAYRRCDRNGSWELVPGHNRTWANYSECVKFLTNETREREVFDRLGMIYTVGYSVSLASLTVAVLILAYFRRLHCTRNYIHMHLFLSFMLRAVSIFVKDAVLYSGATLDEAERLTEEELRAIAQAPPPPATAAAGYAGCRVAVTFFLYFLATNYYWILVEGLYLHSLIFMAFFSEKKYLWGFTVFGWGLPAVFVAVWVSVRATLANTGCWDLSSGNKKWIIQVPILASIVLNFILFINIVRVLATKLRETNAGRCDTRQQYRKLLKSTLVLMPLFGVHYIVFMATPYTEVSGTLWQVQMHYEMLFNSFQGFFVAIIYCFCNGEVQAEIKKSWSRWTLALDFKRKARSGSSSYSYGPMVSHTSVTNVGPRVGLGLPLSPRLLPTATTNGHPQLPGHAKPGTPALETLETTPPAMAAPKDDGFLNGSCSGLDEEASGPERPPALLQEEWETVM
# What was measured:
# [1] = biological target: T1, mouse PTH1R overexpressed on CHO cells; assay: cell-based or functional assay
# [2] = biological target: T2, rat PTH1R on UMR106 cells; assay: cell-based or functional assay
# [3] = biological target: T3, human PTH1R on Saos-2 cells (endogenous); assay: cell-based or functional assay
# [4] = biological target: T4, human PTH1R overexpressed on CHO cells; assay: flow cytometry on CHO cells, with 1 uM PTH as competitor
# Protocol: (§1) To characterize antibody binding to PTH1R, cells were labeled with either CellTrace™ CFSE or CellTrace™ Violet. Unlabeled CHOK1 parent, CHO human PTH1R labeled with CellTrace™CFSE, and CHO mouse PTH1R labeled with CellTrace™Violet were pooled together and stained with increasing concentrations of antibody. Antibodies were incubated for 24 hr at 4° C. followed by two washes with FACS Buffer (0.5% BSA, 0.1% NaN3 in DPBS). Cells were then incubated with Allophycocyanin (APC) AffiniPure F(ab′)₂ Fragment Goat Anti-Human IgG (H+L) (Jackson ImmunoResearch, West Grove, Pa.) for 20 minutes at 4° C. Followed by two washes, cells were resuspended in FACS Buffer. Samples were acquired using BD Cytometer (BD Biosciences, San Jose, Calif.) and data were analyzed using FlowJo (FlowJo, LLC, Ashland, Oreg.) and Prism (GraphPad Software, La Jolla, Calif.).
# [5] = biological target: T1, mouse PTH1R overexpressed on CHO cells; assay: as above
# Protocol: as §1
# [6] = biological target: T3, human PTH1R on Saos-2 cells (endogenous); assay: cell-based or functional assay; remark: listed apart in the source
# [7] = biological target: T2, rat PTH1R on UMR106 cells; assay: cell-based or functional assay; remark: listed apart in the source
# [8] = biological target: T3, human PTH1R on Saos-2 cells (endogenous); assay: cell-based or functional assay; remark: listed apart in the source
# [9] = biological target: T5, human PTH1R overexpressed on Saos-2 …; assay: flow cytometry on Saos-2 cells overexpressing human PTH1R, antibody alone, PE anti-human IgG
# [10] = biological target: T5, human PTH1R overexpressed on Saos-2 …; assay: flow cytometry on Saos-2 cells overexpressing human PTH1R, in the presence of 1 uM PTH, PE anti-human IgG
"EC50 of PTH(1-34), cAMP assay, with 267 nM IgG [1]","EC50 of PTH(1-34), cAMP assay, with 267 nM IgG [2]","EC50 of PTH(1-34), cAMP assay, with 267 nM IgG [3]","EC50 of PTHrP(1-34), cAMP assay, with 267 nM IgG [3]",EC50 [4],EC50 [5],"EC50 of PTHrP(1-34), cAMP assay, with 267 nM IgG [2]",Binder,further results
2.15 nM,13.7 nM,38.1 nM,63 nM,5.39 nM,0.778 nM,,"XPA.85.341 (antibody, V domains shown, Light-chain-shuffled variant of XPA.85.017) VH: EVQLVETGGGVVRPGGSLRLSCAASGFTFSSSAMSWVRQTPGKELQWVSAITPGGEGTYYADVVKGRFTISRDNSKDTLYLQMDSLRAEDTAVYYCARDLYGSYGDAFDIWGQGTLVTVSS VL: SYELTQPSSVSVSPGQTASITCSGDKLGEKYASWYQQKPGQSPVLVMFEDTKRPSGIPERFSGSNSGNTATLTISGTQAEDEADYYCQAWDSSWVFGGGTQLTVL",
1.95 nM,7.9 nM,24.8 nM,31.4 nM,2.98 nM,0.327 nM,3.48 nM,"XPA.85.339 (antibody, V domains shown, Light-chain-shuffled variant of XPA.85.017) VH: EVQLVETGGGVVRPGGSLRLSCAASGFTFSSSAMSWVRQTPGKELQWVSAITPGGEGTYYADVVKGRFTISRDNSKDTLYLQMDSLRAEDTAVYYCARDLYGSYGDAFDIWGQGTLVTVSS VL: SYELTQPPSVSVAPGQTATITCSGDRLGDKFISWYQQKPGQSPLLVIFEDNERPSRIPERFSGSNSGNSATLTISGTQAVDEADYYCQAWDSSWVFGGGTQLTVL",
13.6 nM,66.7 nM,78.6 nM,62.2 nM,1.86 nM,0.206 nM,11.6 nM,"XPA.85.287 (antibody, V domains shown, also called Ab287) VH: EVQLVETGGGVVRPGGSLRLSCAASGFTFSSSAMSWVRQTPGKELQWVSAITPGGEGTYYADVVKGRFTISRDNSKDTLYLQMDSLRAEDTAVYYCARDLYGSYGDAFDIWGQGTLVTVSS VL: SYVLTQPPSVSVAPGQTARITCSGDKLGDRYVSWYQQKPGQSPVLVMFEDTGRPAGIPERFSGSNSGNTATLTISGTQAEDEADYYCQAWGTSWVFGGGTQLTVL","fold shift of the PTH (1-34) dose response, M-CSF secretion by Saos-2 cells, 40 µg/mL antibody [6]: ~7 fold; EC50 of PTHrP(1-34), cAMP assay, with 267 nM IgG [1]: 5.77 nM; fold-shift in PTH(1-34) EC50 vs vehicle only, cAMP assay [1]: > 100 fold; fold-shift in PTHrP(1-34) EC50 vs vehicle only, cAMP assay [1]: > 100 fold; fold-shift in PTH(1-34) EC50 vs vehicle only, cAMP assay [2]: > 100 fold; fold-shift in PTHrP(1-34) EC50 vs vehicle only, cAMP assay [2]: 35 fold; fold-shift in PTH(1-34) EC50 vs vehicle only, cAMP assay [3]: > 100 fold; fold-shift in PTHrP(1-34) EC50 vs vehicle only, cAMP assay [3]: 89 fold"
,,,,,,,"XPA.85.329 (antibody, V domains shown, IgG; also called Ab329; XPA.329) VH: QMQLVQSGAEVKKPGSSVKVSCKASGGTFSSYAISWVRQAPGQGLEWMGGIIPIFGTANYAQKFQGRVTITADESTSTAYMELSSLRSEDTAVYYCARGYVVARLWGQGTLVTVSS VL: DIVMTQTPLSLSVTPGQPASISCKSSQSLLHIDGLTYLYWYLQKPGQPPQLLIYEVSHRFSGVSDKFSGSGSGTDFTLTISRVEAEDVGVYYCMQSLHLPITFGQGTRLEIK","EC50 of antibody, neutralization of M-CSF production induced by 12.5 nM PTHrP (1-36) [6]: 4 nM; fold shift of the PTHrP (1-36) dose response, M-CSF secretion by Saos-2 cells, 40 µg/mL antibody [6]: > 200 fold; % inhibition of cAMP accumulation at 1 µM PTH(1-34), 267 nM IgG [7]: 50%; % inhibition of cAMP accumulation at 1 µM PTHrP(1-34), 267 nM IgG [7]: 41%; % inhibition of cAMP accumulation at 1 µM PTH(1-34), 267 nM IgG [8]: 79%; % inhibition of cAMP accumulation at 1 µM PTHrP(1-34), 267 nM IgG [8]: 90%; EC50 [9]: 7.61 nM; EC50 [10]: 35.3 nM"
